This test relates to target antigen-expressing cell line. In words: Jurkat NFAT-GFP assay, coculture with target cell lines expressing the respective target antigen (summary Table 10A). The class given is cell-based, human. More on the design: key: The signs +/−, +, 2+ etc. after the name of the cell lines indicate the relative degree of positivity on the Jurkat-NFAT-GFP assay as measured by the % GFP positive cells; +: relative degree of positivity on the Jurkat-NFAT-GFP assay as measured by the % GFP positive cells; 2+: relative degree of positivity on the Jurkat-NFAT-GFP assay as measured by the % GFP positive cells. Particulars: SIR-expressing Jurkat-NFAT-GFP cells cocultured with L428; relative % GFP positive cells. The essentials:
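Positivity is scored when SIR-expressing reporter Jurkat cells show more GFP-positive cells than parental controls after coculture with the antigen-bearing line. Effector-to-target ratio is about 1:2, coculture lasts roughly 4–18 hours, and GFP is quantified by FACS.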

B1: 041216 C02 (protein)
chain: MALPVTALLLPLALLLHAARPDEIVLTQSPATLSLSPGERATLSCSASSSVSYMHWYQQKPGQAPRLLIYDTSKLASGIPARFSGSGSGTDFTLTISSLEPEDVAVYYCFQGSVYPFTFGQGTKLEIKRGGGGSGGGGSGGGGSQVQLQESGPGLVKPSQTLSLTCTVSGGSISTSGMGVGWIRQHPGKGLEWIGHIWWDDDKRYNPALKSRVTISVDTSKNQFSLKLSSVTAADTAVYYCARMELWSYYFDYWGQGTLVTVSSLEGKPIPNPLLGLDSTGSGEDLKNVFPPEVAVFEPSKAEIAHTQKATLVCLATGFYPDHVELSWWVNGKEVHSGVCTDPQPLKEQPALNDSRYCLSSRLRVSATFWQNPRNHFRCQVQFYGLSENDEWTQDRAKPVTQIVSAEAWGRADCGITSASYHQGVLSATILYEILLGKATLYAVLVSALVLMAMVKRKDSRGRAKRSGSGATNFSLLKQAGDVEENPGPTSMALPVTALLLPLALLLHAARPDIQMTQSPATIENTSLSASVGDRVTITCRASQGISSWLTWYQQKPEKAPKSLIYAASSLQSGVPSRFSGSGSGTDFTLTISSLQPEDFATYYCQQYDSYPITFGQGTRLEIKGGGGSGGGGSGGGGSQVQLQQWGAGLLKPSETLSLTCAVYGGSFSAYYWSWIRQPPGKGLEWIGDINHGGGTNYNPSLKSRVTISVDTSKNQFSLKLNSVTAADTAVYYCASLTAYWGQGSLVTVSSTREQKLISEEDGSGIQNPDPAVYQLRDSKSSDKSVCLFTDFDSQTNVSQSKDSDVYITDKCVLDMRSMDFKSNSAVAWSNKSDFACANAFNNSIIPEDTFFPSSDVPCDVKLVEKSFETDTNLNFQNLSVIGFRILLLKVAGFNLLMTLRLWSSRAKRSGSGVKQTLNFDLLKLAGDVESNPGPSRGHMTEYKPTVRLATRDDVPRAVRTLAAAFADYPATRHTVDPDRHIERVTELQELFLTRVGLDIGKVWVADDGAAVAVWTTPESVEAGAVFAEIGPRMAELSGSRLAAQQQMEGLLAPHRPKEPAWFLATVGVSPDHQGKGLGSAVVLPGVEAAERAGVPAFLETSAPRNLPFYERLGFTVTADVEVPEGPRTWCMTRKPGA
modifications: Synthetic polynucleotide encoding a SIR
Take B1: the “NFAT-GFP ASSAY Positive Cell lines: L428” value is on record as “L428 (+/−)”.

Source of the values: patent US12269859B2, “Synthetic immune receptors and methods of use thereof” (Angeles Therapeutics, Inc., priority 2016, dated 2025).
